Experimental data as given in the supplement of paper PMC10567573.

B1: BTBD1 (parent)
chain: IVGFGLYGSIHGPTDYQVNIQIIE

Variants of: B1
Assay: protein stability index of a GFP-peptide fusion (GPS, HEK-293T) (PSI 1-6); higher = more stable
Details: c terminus: a fixed tail appended
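Note: lentivirally expressed fusions sorted by FACS into six bins by GFP to DsRed ratio, PSI derived from sequencing read proportions per bin multiplied by bin number.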

| Variant | protein stability index |
| --- | --- |
| IVGFGLYGSTHGPTDYQVNIQIIE | 3.32 |
| IVGFGLYGSVHGPTDYQVNIQIIE | 2.09 |
| IVGFGLYGSKHGPTDYQVNIQIIE | 1.76 |
| IVGFGLYGSCHGPTDYQVNIQIIE | 3.14 |
| IVGFGLYGSWHGPTDYQVNIQIIE | 1.64 |
| IVGFGLYGSFHGPTDYQVNIQIIE | 3.05 |
| IVGFGLYGSPHGPTDYQVNIQIIE | 2.78 |
| IVGFGLYGSEHGPTDYQVNIQIIE | 2.58 |
| IVGFGLYGSDHGPTDYQVNIQIIE | 2.74 |
| IVGFGLYGSQHGPTDYQVNIQIIE | 3.45 |
| IVGFGLYGSMHGPTDYQVNIQIIE | 1.95 |
| IVGFGLYGSGHGPTDYQVNIQIIE | 5.97 |
| IVGFGLYGSIHGPTDYQVNIQIHE | 4.05 |
| IVGFGLYGSIHGPTDYQVNIQILE | 2.96 |
| IVGFGLYGSIHGPTDYQVNIQIEE | 2.23 |
| IVGFGLYGSIHGPTDYQVNIQIKE | 2.13 |
| IVGFGLYGSIHGPTDYQVNIQIME | 3.68 |
| IVGFGLYGSIHGPTDYQVNIQICE | 2.05 |
| IVGFGLYYSIHGPTDYQVNIQIIE | 2.35 |
| IVGFGLYQSIHGPTDYQVNIQIIE | 3.42 |
| IVGFGLYTSIHGPTDYQVNIQIIE | 2.37 |
| IVGFGLYKSIHGPTDYQVNIQIIE | 2.89 |
| IVGFGLYRSIHGPTDYQVNIQIIE | 1.45 |
| IVGFGLYLSIHGPTDYQVNIQIIE | 2.81 |

| Variant | protein stability index |
| --- | --- |
| IVGFGLYPSIHGPTDYQVNIQIIE | 4.75 |
| IVGFGLYNSIHGPTDYQVNIQIIE | 2.5 |
| IVGFGLYMSIHGPTDYQVNIQIIE | 2.04 |
| IVGFGLYGSIHGPTDYQVIIQIIE | 3.1 |
| IVGFGLYGSIHGPTDYQVWIQIIE | 1.76 |
| IVGFGLYGSIHGPTDYQVMIQIIE | 4.59 |
| IVGFGLYGSIHGPTDYQVQIQIIE | 2.56 |
| IVGFGLYGSIHGPTDYQVRIQIIE | 2.13 |
| IVGFGLYGSIHGPTDYQVVIQIIE | 4.07 |
| IVGFGLYGSIHGPTDYQVTIQIIE | 3.11 |
| IVGFGLYGSIHGPTDYQVPIQIIE | 3.38 |
| IVGFGLYGSIHGPTDYQVGIQIIE | 1.59 |
| IVGFGLYGSIHGPTDYQVHIQIIE | 1.59 |
| IVGFGLYGSIHGFTDYQVNIQIIE | 2.72 |
| IVGFGLYGSIHGWTDYQVNIQIIE | 2.76 |
| IVGFGLYGSIHGLTDYQVNIQIIE | 2.25 |
| IVGFGLYGSIHGRTDYQVNIQIIE | 2.35 |
| IVGFGLYGSIHGATDYQVNIQIIE | 2.3 |
| IVGFGLYGSIHGQTDYQVNIQIIE | 3.17 |
| IVGFGLYGSIHGYTDYQVNIQIIE | 2.98 |
| IVGFGLYGSIHGCTDYQVNIQIIE | 2.51 |
| IVGFGLYGSIHGGTDYQVNIQIIE | 1.57 |
| IVGFGLYGSIHGTTDYQVNIQIIE | 2.81 |
| IVGFGLYGSIHGMTDYQVNIQIIE | 2.48 |

| Variant | protein stability index |
| --- | --- |
| IVGFGLYGSIHGDTDYQVNIQIIE | 1.76 |
| IVGFGLYGSIHGITDYQVNIQIIE | 4.51 |
| IVGFGLYGSIHGVTDYQVNIQIIE | 2.33 |
| IVGFGLYGSIHGPTDYQVNHQIIE | 2.21 |
| IVGFGLYGSIHGPTDYQVNEQIIE | 1.46 |
| IVGFGLYGSIHGPTDYQVNAQIIE | 2.29 |
| IVGFGLYGSIHGPTDYQVNVQIIE | 2.83 |
| IVGFGLYGSIHGPTDYQVNCQIIE | 2.49 |
| IVGFGLYGSIHGPTDYQVNDQIIE | 2.31 |
| IVGFGLYGSIHGPTDYQVNMQIIE | 4.04 |
| IVGFGLYGSIHGPTDYQVNKQIIE | 1.16 |
| IVGFGLYGSIHGPTDYQVNSQIIE | 1.93 |
| IVGFGLYGSIHGPTDYQVNTQIIE | 2.13 |
| IVGFGLYGSIHGPTDYQVNQQIIE | 2.58 |
| IVGFGLYGSIHGPTDYQVNPQIIE | 2.21 |
| IVGFGLYGSIHGPTDYQVNNQIIE | 1.24 |
| IVGFGLYGSIHGPTDYQVNRQIIE | 2.12 |
| IVGFGLYGSIHGPTDYQVNLQIIE | 3.4 |
| IVGFGLYGSIHGPTDYDVNIQIIE | 2.09 |
| IVGFGLYGSIHGPTDYCVNIQIIE | 2.49 |
| IVGFGLYGSIHGPTDYEVNIQIIE | 2.95 |
| IVGFGLYGSIHGPTDYFVNIQIIE | 2.95 |
| IVGFGLYGSIHGPTDYGVNIQIIE | 4.09 |
| IVGFGLYGSIHGPTDYPVNIQIIE | 1.98 |

| Variant | protein stability index |
| --- | --- |
| IVGFGLYGSIHGPTDYRVNIQIIE | 3.14 |
| IVGFGLYGSIHGPTDYAVNIQIIE | 3.68 |
| IVGFGLYGSIHGPTDYKVNIQIIE | 2.3 |
| IVGFGLYGSIHGPTDYSVNIQIIE | 2.31 |
| IVGFGLYGSIHGPTDYNVNIQIIE | 2.98 |
| IVGFGLYGSIHGPTDYTVNIQIIE | 2.53 |
| IVGFGLYGSIHGPTDYVVNIQIIE | 2.48 |
| IVGFGLYGSIHGPTDYYVNIQIIE | 2.44 |
| IVGFGLYGSIHGPTDYQVNITIIE | 2.1 |
| IVGFGLYGSIHGPTDYQVNIAIIE | 3.82 |
| IVGFGLYGSIHGPTDYQVNIYIIE | 3.06 |
| IVGFGLYGSIHGPTDYQVNIRIIE | 2.53 |
| IVGFGLYGSIHGPTDYQVNIEIIE | 2.68 |
| IVGFGLYGSIHGPTDYQVNIIIIE | 2.01 |
| IVGFGLYGSIHGPTDYQVNICIIE | 2.19 |
| IVGFGLYGSIHGPTDYQVNILIIE | 2.66 |
| IVGFGLYGSIHGPTDYQVNIPIIE | 2.37 |
| IVGFGLYGSIHGPTDYQVNIDIIE | 3.52 |
| IVGFGLYGSIHGPTDYQVNIFIIE | 1.77 |
| IVGFGLYGSIHGPTDYQVNIGIIE | 2.44 |
| IVGFGLYGSIHGPTDYQVNIWIIE | 1.5 |
| IVGFGLYGSIHGPTDDQVNIQIIE | 2.5 |
| IVGFGLYGSIHGPTDTQVNIQIIE | 4.3 |
| IVGFGLYGSIHGPTDQQVNIQIIE | 1.69 |

| Variant | protein stability index |
| --- | --- |
| IVGFGLYGSIHGPTDKQVNIQIIE | 3.23 |
| IVGFGLYGSIHGPTDNQVNIQIIE | 2.41 |
| IVGFGLYGSIHGPTDIQVNIQIIE | 3.59 |
| IVGFGLYGSIHGPTDWQVNIQIIE | 3.98 |
| IVGFGLYGSIHGPTDEQVNIQIIE | 2.15 |
| IVGFGLYGSIHGPTDGQVNIQIIE | 4.04 |
| IVGFGLYGSIHGPTDAQVNIQIIE | 2.1 |
| IVGFGLYGSIHGPTDLQVNIQIIE | 2.09 |
| IVGFGLYGSIHGPTDCQVNIQIIE | 3.51 |
| IVGFGLYGSIHGPTDMQVNIQIIE | 2.38 |
| IVGFGLYGSIHGPTDHQVNIQIIE | 1.6 |
| IVGFGLYGAIHGPTDYQVNIQIIE | 1.82 |
| IVGFGLYGFIHGPTDYQVNIQIIE | 2.95 |
| IVGFGLYGTIHGPTDYQVNIQIIE | 1.99 |
| IVGFGLYGRIHGPTDYQVNIQIIE | 2.67 |
| IVGFGLYGYIHGPTDYQVNIQIIE | 2.58 |
| IVGFGLYGQIHGPTDYQVNIQIIE | 2.56 |
| IVGFGLYGHIHGPTDYQVNIQIIE | 1.88 |
| IVGFGLYGIIHGPTDYQVNIQIIE | 2.88 |
| IVGFGLYGWIHGPTDYQVNIQIIE | 2.76 |
| IVGFGLYGNIHGPTDYQVNIQIIE | 3.18 |
| IVGFGLYGEIHGPTDYQVNIQIIE | 2.74 |
| IVGFGLYGLIHGPTDYQVNIQIIE | 3.19 |
| IVGFGLYGVIHGPTDYQVNIQIIE | 3.54 |

| Variant | protein stability index |
| --- | --- |
| IVGFGLYGSIHGPTDYQNNIQIIE | 1.8 |
| IVGFGLYGSIHGPTDYQHNIQIIE | 1.58 |
| IVGFGLYGSIHGPTDYQRNIQIIE | 2.39 |
| IVGFGLYGSIHGPTDYQDNIQIIE | 2.32 |
| IVGFGLYGSIHGPTDYQFNIQIIE | 2.14 |
| IVGFGLYGSIHGPTDYQTNIQIIE | 4 |
| IVGFGLYGSIHGPTDYQKNIQIIE | 2.42 |
| IVGFGLYGSIHGPTDYQQNIQIIE | 2.38 |
| IVGFGLYGSIHGPTDYQINIQIIE | 2.72 |
| IVGFGLYGSIHGPTDYQLNIQIIE | 3.15 |
| IVGFGLYGSIHGPTDYQENIQIIE | 2.36 |
| IVGFGLYGSIHMPTDYQVNIQIIE | 2.27 |
| IVGFGLYGSIHWPTDYQVNIQIIE | 2.56 |
| IVGFGLYGSIHEPTDYQVNIQIIE | 3.19 |
| IVGFGLYGSIHIPTDYQVNIQIIE | 1.72 |
| IVGFGLYGSIHKPTDYQVNIQIIE | 4.19 |
| IVGFGLYGSIHLPTDYQVNIQIIE | 3.53 |
| IVGFGLYGSIHSPTDYQVNIQIIE | 3.04 |
| IVGFGLYGSIHQPTDYQVNIQIIE | 3.29 |
| IVGFGLYGSIHDPTDYQVNIQIIE | 3.52 |
| IVGFGLYGSIHYPTDYQVNIQIIE | 1.89 |
| IVGFGLYGSIHGPYDYQVNIQIIE | 3.03 |
| IVGFGLYGSIHGPMDYQVNIQIIE | 3.23 |
| IVGFGLYGSIHGPNDYQVNIQIIE | 2.95 |

| Variant | protein stability index |
| --- | --- |
| IVGFGLYGSIHGPIDYQVNIQIIE | 2.73 |
| IVGFGLYGSIHGPRDYQVNIQIIE | 4.46 |
| IVGFGLYGSIHGPQDYQVNIQIIE | 3.12 |
| IVGFGLYGSIHGPDDYQVNIQIIE | 2.94 |
| IVGFGLYGSIHGPHDYQVNIQIIE | 2.71 |
| IVGFGLYGSIHGPWDYQVNIQIIE | 2.9 |
| IVGFGLYGSIHGPPDYQVNIQIIE | 3.3 |
| IVGFGLYGSIHGPSDYQVNIQIIE | 3.24 |
| IVGFGLYGSIHGPVDYQVNIQIIE | 2.82 |
| IVGFGLYGSIHGPCDYQVNIQIIE | 2.51 |
| IVGFGLYGSIHGPTDYQVNIQAIE | 2.07 |
| IVGFGLYGSIHGPTDYQVNIQFIE | 2.84 |
| IVGFGLYGSIHGPTDYQVNIQPIE | 3.17 |
| IVGFGLYGSIHGPTDYQVNIQHIE | 2.4 |
| IVGFGLYGSIHGPTDYQVNIQCIE | 4.32 |
| IVGFGLYGSIHGPTDYQVNIQWIE | 3.36 |
| IVGFGLYGSIHGPTDYQVNIQEIE | 2 |
| IVGFGLYGSIHGPTDYQVNIQDIE | 1.3 |
| IVGFGLYGSIHGPTDYQVNIQQIE | 3 |
| IVGFGLYGSIHGPTDYQVNIQSIE | 2.09 |
| IVGFGLYGSIHGPTDYQVNIQGIE | 1.91 |
| IVGFGLYGSIHGPTDYQVNIQYIE | 2.48 |
| IVGFGLYGSIHGPTDYQVNIQVIE | 3.25 |
| IVGFGLYGSIHGPTDYQVNIQNIE | 1.24 |

| Variant | protein stability index |
| --- | --- |
| IVGFGLYGSIHGPTDYQVNIQLIE | 2.65 |
| IVGFGLYGSIHGPTDYQVNIQKIE | 2.4 |
| IVGFGLYGSIKGPTDYQVNIQIIE | 1.55 |
| IVGFGLYGSICGPTDYQVNIQIIE | 2.58 |
| IVGFGLYGSIDGPTDYQVNIQIIE | 1.97 |
| IVGFGLYGSIVGPTDYQVNIQIIE | 3.12 |
| IVGFGLYGSIPGPTDYQVNIQIIE | 2.57 |
| IVGFGLYGSINGPTDYQVNIQIIE | 3.26 |
| IVGFGLYGSIHGPTEYQVNIQIIE | 3.19 |
| IVGFGLYGSIHGPTYYQVNIQIIE | 3.42 |
| IVGFGLYGSIHGPTSYQVNIQIIE | 3.04 |
| IVGFGLYGSIHGPTNYQVNIQIIE | 2.36 |
| IVGFGLYGSIHGPTGYQVNIQIIE | 2.52 |
| IVGFGLYGSIHGPTAYQVNIQIIE | 2.57 |
| IVGFGLYGSIHGPTVYQVNIQIIE | 2.67 |
| IVGFGLYGSIHGPTCYQVNIQIIE | 2.97 |
| IVGFGLYGSIHGPTLYQVNIQIIE | 3.05 |
| IVGFGLYGSIHGPTIYQVNIQIIE | 3.86 |
| IVGFGLYGSIHGPTMYQVNIQIIE | 2.99 |
| IVGFGLYGSIHGPTPYQVNIQIIE | 2.37 |
